The RNAGym collection of RNA variant scans (doi:10.7554/elife.80360)

B1: Hammerhead Ribozyme (parent)
chain: ACCGGAUGUGCUUUCCGGUCUGAUGAGUCCGUGAGGACGAAACAG

Variants of: B1
Test: self-cleavage, relative activity (ratio to wild type); higher = more cleavage; co-transcriptional

Row | Variant | self-cleavage
1 | A23C A41C | 0.313
2 | A23C A41G | 0.394
3 | A23C A41U | 0.361
4 | A23C A42C | 0.31
5 | A23C A42G | 0.392
6 | A23C A42U | 0.331
7 | A23C A44C | 0.39
8 | A23C A44G | 0.896
9 | A23C A44U | 0.227
10 | A23C C29A | 0.267
11 | A23C C29G | 0.369
12 | A23C C29U | 0.337
13 | A23C C30A | 0.306
14 | A23C C30G | 0.354
15 | A23C C30U | 0.578
16 | A23C C38A | 0.327
17 | A23C C38G | 0.371
18 | A23C C38U | 0.316
19 | A23C C43A | 0.343
20 | A23C C43G | 0.274
21 | A23C C43U | 0.325
22 | A23C G25A | 0.331
23 | A23C G25C | 0.37
24 | A23C G25U | 0.298

Row | Variant | self-cleavage
25 | A23C G27A | 0.341
26 | A23C G27C | 0.328
27 | A23C G27U | 0.256
28 | A23C G31A | 0.68
29 | A23C G31C | 0.533
30 | A23C G31U | 0.647
31 | A23C G33A | 0.621
32 | A23C G33C | 0.479
33 | A23C G33U | 0.659
34 | A23C G35A | 0.397
35 | A23C G35C | 0.408
36 | A23C G35U | 0.408
37 | A23C G36A | 0.412
38 | A23C G36C | 0.351
39 | A23C G36U | 0.335
40 | A23C G39A | 0.298
41 | A23C G39C | 0.357
42 | A23C G39U | 0.371
43 | A23C G45A | 0.302
44 | A23C G45C | 0.376
45 | A23C G45U | 0.377
46 | A23C U24A | 0.397
47 | A23C U24C | 0.505
48 | A23C U24G | 0.464

Row | Variant | self-cleavage
49 | A23C U28A | 0.262
50 | A23C U28C | 0.352
51 | A23C U28G | 0.398
52 | A23C U32A | 0.466
53 | A23C U32C | 0.509
54 | A23C U32G | 0.383
55 | A23G | 0.439
56 | A23G A26C | 0.263
57 | A23G A26G | 0.327
58 | A23G A26U | 0.3
59 | A23G A34C | 0.338
60 | A23G A34G | 0.35
61 | A23G A34U | 0.364
62 | A23G A37C | 0.3
63 | A23G A37G | 0.314
64 | A23G A37U | 0.28
65 | A23G A40C | 0.355
66 | A23G A40G | 0.306
67 | A23G A40U | 0.326
68 | A23G A41C | 0.34
69 | A23G A41G | 0.334
70 | A23G A41U | 0.298
71 | A23G A42C | 0.31
72 | A23G A42G | 0.324

Row | Variant | self-cleavage
73 | A23G A42U | 0.335
74 | A23G A44C | 0.353
75 | A23G A44G | 0.55
76 | A23G A44U | 0.339
77 | A23G C29A | 0.319
78 | A23G C29G | 0.26
79 | A23G C29U | 0.356
80 | A23G C30A | 0.305
81 | A23G C30G | 0.248
82 | A23G C30U | 0.485
83 | A23G C38A | 0.328
84 | A23G C38G | 0.311
85 | A23G C38U | 0.394
86 | A23G C43A | 0.304
87 | A23G C43G | 0.35
88 | A23G C43U | 0.269
89 | A23G G25A | 0.311
90 | A23G G25C | 0.333
91 | A23G G25U | 0.321
92 | A23G G27A | 0.297
93 | A23G G27C | 0.285
94 | A23G G27U | 0.282
95 | A23G G31A | 0.403
96 | A23G G31C | 0.442

Row | Variant | self-cleavage
97 | A23G G31U | 0.448
98 | A23G G33A | 0.465
99 | A23G G33C | 0.376
100 | A23G G33U | 0.458
101 | A23G G35A | 0.38
102 | A23G G35C | 0.279
103 | A23G G35U | 0.316
104 | A23G G36A | 0.34
105 | A23G G36C | 0.291
106 | A23G G36U | 0.403
107 | A23G G39A | 0.301
108 | A23G G39C | 0.33
109 | A23G G39U | 0.347
110 | A23G G45A | 0.331
111 | A23G G45C | 0.33
112 | A23G G45U | 0.297
113 | A23G U24A | 0.645
114 | A23G U24C | 0.488
115 | A23G U24G | 0.283
116 | A23G U28A | 0.329
117 | A23G U28C | 0.327
118 | A23G U28G | 0.386
119 | A23G U32A | 0.387
120 | A23G U32C | 0.375

Row | Variant | self-cleavage
121 | A23G U32G | 0.366
122 | A23U | 0.425
123 | A23U A26C | 0.379
124 | A23U A26G | 0.304
125 | A23U A26U | 0.374
126 | A23U A34C | 0.345
127 | A23U A34G | 0.358
128 | A23U A34U | 0.28
129 | A23U A37C | 0.381
130 | A23U A37G | 0.422
131 | A23U A37U | 0.272
132 | A23U A40C | 0.348
133 | A23U A40G | 0.237
134 | A23U A40U | 0.371
135 | A23U A41C | 0.33
136 | A23U A41G | 0.301
137 | A23U A41U | 0.307
138 | A23U A42C | 0.331
139 | A23U A42G | 0.375
140 | A23U A42U | 0.337
141 | A23U A44C | 0.438
142 | A23U A44G | 0.706
143 | A23U A44U | 0.336
144 | A23U C29A | 0.352

Row | Variant | self-cleavage
145 | A23U C29G | 0.345
146 | A23U C29U | 0.322
147 | A23U C30A | 0.463
148 | A23U C30G | 0.345
149 | A23U C30U | 0.402
150 | A23U C38A | 0.381
151 | A23U C38G | 0.357
152 | A23U C38U | 0.341
153 | A23U C43A | 0.377
154 | A23U C43G | 0.356
155 | A23U C43U | 0.433
156 | A23U G25A | 0.267
157 | A23U G25C | 0.31
158 | A23U G25U | 0.315
159 | A23U G27A | 0.32
160 | A23U G27C | 0.308
161 | A23U G27U | 0.279
162 | A23U G31A | 0.631
163 | A23U G31C | 0.393
164 | A23U G31U | 0.477
165 | A23U G33A | 0.524
166 | A23U G33C | 0.262
167 | A23U G33U | 0.551
